Experimental data as given in patent US11464867B2, “Multimeric elastin-like polypeptides” (University of Southern California, priority 2018, dated 2022).
Several values for one entry are separate records, joined by “and”; a condition that tells them apart may be missing. Equal values may be shown once. Entries after “also recorded” stand apart in the source; their conditions may differ.

How the values were obtained:
[1] = Phase transition temperature by optical density (UV-Vis, 350 nm) versus temperature; assay type: physicochemical; details: mean ± 95% CI, Table 2
Protocol: The temperature with the maximum positive slope was defined as the phase transition temperature for each condition. (FIG. 2B) The concentration-temperature phase diagram was determined for both ELPs, and fit to the following equation: Tt=b−m Log10[CELP].
Both ELPs at different concentrations (5 μM to 100 μM) were subject to a precisely controlled temperature increase from 25 to 75° C. at a rate of 1° C./min. The Tt of ELPs is defined as the temperature at which the first derivative of the optical density with respect to the temperature reaches a maximum.

HeLa cells = assay: HeLa cell uptake, co-localization with lysosomes (confocal microscopy); assay type: cell-based; details: 30 μM rhodamine-labeled ELP; 120 min; LysoTracker Green
Protocol: Lysosomes were labeled by LysoTracker Green® having the structure:
In order to further validate the potential efficacy of CA192 working as a potent drug binding domain, an in vitro cell uptake study was performed. Briefly, CA192 and A192 was labeled with rhodamine and HeLa cell lysosome with LysoTracker Green (LTG)® having the structure as described herein. For the treatment group, HeLa cells were incubated with 30 μM of rhodamine-labeled (rh)-CA192 and 70 nM of LTG for 120 min. For the control group, HeLa cells were incubated with 30 μM of rhodamine-labeled (rh)-A192 and 70 nM of LTG for 120 min. Cells were then rinsed with warm HBSS three times, maintained in the fresh culture medium, and imaged by confocal microscopy. Images were acquired using a Zeiss laser scanning microscope 510 Meta NLO confocal imaging system equipped with Argon, red HeNe, green HeNe laser, and a Coherent Chameleon Ti-Sapphire laser (LSM) mounted on a vibration-free table (Carl Zeiss, Thornwood, N.Y.). All images were acquired using a Plan-Apochromat 63× Oil immersion lens with a working distance of 0.19 mm.

[2] = ATRA encapsulation in 4PA, two phase method, HPLC; assay type: physicochemical; details: control ELP
Text: FIG. 21: SDS PAGE was used to resolve the purified 4PA fusion protein. To formulate ATRA-loaded 4PA, a two phase encapsulation method was adopted. After removing undissolved drug, HPLC was used to quantify 4PA and ATRA concentrations. Encapsulation ratio, defined as CATRA/C4PA was 2.7, theoretical maximum being 4.

[3] = Dynamic light scattering (DLS) hydrodynamic radius and stability; assay type: physicochemical; details: DLS intensity; 20 μM
Protocol: FIGS. 5A-5D: CA192 (SEQ ID NO: 3) has a good stability in terms of hydrodynamic radius. There are two fractions present in the CA192 (SEQ ID NO: 3) solution: an aggregated form and dimeric form. A dimerized form has similar hydrodynamic radius, Rh as A192. […] Drug-loaded CA192 (SEQ ID NO: 3) has a mean Rh of 64.5±0.5 nm (p<0.05). […] (FIG. 5C) Size Exclusion Chromatography (SEC) was conducted to fractionate CA192 (SEQ ID NO: 3) depending on their particle size. Two fractions were observed. […] In contrast, the fraction 1 contains a mixture of larger aggregates.
The hydrodynamic radius (Rh) of both the loaded and unloaded fusion protein, along with plain A192, was measured via dynamic light scattering (DLS) using a DynaPro Plate Reader II from Wyatt Technology. Before the DLS measurement, solutions were filtered through […] pore size filters. The concentration of each solution was then adjusted to 20 μM. 60 μL from each sample was pipetted into three different wells on the plate reader and covered by 15 μL mineral oil each to avoid solvent evaporation. […] Briefly, the fusion solution was incubated at 37° C. for different periods of time up to 48 h and the mean Rh of CA192 at these different time points was measured with DLS. […] (FIG. 5D) Through measuring the CA192 concentration of both fractions, Applicants determined that 20.8% by mass in solution is represented by the multimerized particles. […]

B1: (VPGAG)192 (protein)
chain: VPGAGVPGAGVPGAGVPGAGVPGAGVPGAGVPGAGVPGAGVPGAGVPGAGVPGAGVPGAGVPGAGVPGAGVPGAGVPGAGVPGAGVPGAGVPGAGVPGAGVPGAGVPGAGVPGAGVPGAGVPGAGVPGAGVPGAGVPGAGVPGAGVPGAGVPGAGVPGAGVPGAGVPGAGVPGAGVPGAGVPGAGVPGAGVPGAGVPGAGVPGAGVPGAGVPGAGVPGAGVPGAGVPGAGVPGAGVPGAGVPGAGVPGAGVPGAGVPGAGVPGAGVPGAGVPGAGVPGAGVPGAGVPGAGVPGAGVPGAGVPGAGVPGAGVPGAGVPGAGVPGAGVPGAGVPGAGVPGAGVPGAGVPGAGVPGAGVPGAGVPGAGVPGAGVPGAGVPGAGVPGAGVPGAGVPGAGVPGAGVPGAGVPGAGVPGAGVPGAGVPGAGVPGAGVPGAGVPGAGVPGAGVPGAGVPGAGVPGAGVPGAGVPGAGVPGAGVPGAGVPGAGVPGAGVPGAGVPGAGVPGAGVPGAGVPGAGVPGAGVPGAGVPGAGVPGAGVPGAGVPGAGVPGAGVPGAGVPGAGVPGAGVPGAGVPGAGVPGAGVPGAGVPGAGVPGAGVPGAGVPGAGVPGAGVPGAGVPGAGVPGAGVPGAGVPGAGVPGAGVPGAGVPGAGVPGAGVPGAGVPGAGVPGAGVPGAGVPGAGVPGAGVPGAGVPGAGVPGAGVPGAGVPGAGVPGAGVPGAGVPGAGVPGAGVPGAGVPGAGVPGAGVPGAGVPGAGVPGAGVPGAGVPGAGVPGAGVPGAGVPGAGVPGAGVPGAGVPGAGVPGAGVPGAGVPGAGVPGAGVPGAGVPGAGVPGAGVPGAGVPGAGVPGAGVPGAGVPGAGVPGAGVPGAGVPGAGVPGAGVPGAGVPGAGVPGAGVPGAGVPGAGVPGAGVPGAGVPGAGVPGAGVPGAGVPGAGVPGAGVPGAGVPGAGVPGAGVPGAG
Slope, m ([1]; fit Tt = b - m Log10[CELP]): 8.3 ± 0.28 ° C./Log10(μM)
Intercept, b ([1]; intercept at 1 μM): 72.3 ± 0.41 °C
co-localization with lysosomes (HeLa cells): obvious co-localization with lysosome; also recorded: co-localized with lysosomes; also recorded: co-localizing with lysosomes
ATRA peak on HPLC after encapsulation [2]: not detectable
mean hydrodynamic radius (Rh) [3]: 7.3±0.6 nm and 7.3±0.4 nm
